Data from publication PMC12462528, “Molecular basis of ParA ATPase activation by the CTPase ParB during bacterial chromosome segregation” (Nature Communications, 2025).

B3: His6-ParA_(21-274)-D60A (domain or fragment, Myxococcus xanthus DK1622, UniProt Q1CVJ3 21-274, looked up)
chain: VGRIICISNQKGGVGKTTTAINLAASLASAERRTLLVDMAPQGNAGSGLGIKQDNITGTIYEALLNDRPIQELLHPTELRYLQVVPATPDLTGAEVELVNQDNREFRLRDALRPLAAEYDYIIIDCPPSLGLLTLNALAAADSVLIPLQCEYYALEGLSQLTHTIDLVKQGLNPDLKMEGILLTMFDSRANIAHQVVEEVRGYFKKQVFEVIVPRNVRLSECPSFGKPIILYDIKSKGCESYLALGRELMKRDT
notes: For NMR the protein was 2H/13C/15N-labelled; source: E. coli Rosetta(DE3)pLysS, purified (as His6-ParA)

Tests used:
ParB (wild type) = target: T1, ParB (wild type) (Myxococcus xanthus DK1622, UniProt Q1CVJ4 1-296); experiment: BLI; double-biotinylated 234-bp parS DNA on streptavidin biosensor, loaded with ParB or its derivatives (10 µM) and 1 mM CTPγS; ParA-R238E variants in solution with 1 mM ATP; 25 mM HEPES/KOH pH 7.6, 100 mM KCl, 10 mM MgSO4, 1 mM DTT; apparent KD; conditions: both partners purified
T1 construct: ParB of Myxococcus xanthus DK1622, translation product of ORF MXAN_7476; In the BLI assays loaded as a closed clamp on parS-containing DNA with CTPγS; also called M. xanthus ParB; wild-type ParB; source: E. coli Rosetta(DE3)pLysS, purified (HisTrap HP, Ulp1 cleavage, HiTrap SP HP)
T1 sequence (looked up): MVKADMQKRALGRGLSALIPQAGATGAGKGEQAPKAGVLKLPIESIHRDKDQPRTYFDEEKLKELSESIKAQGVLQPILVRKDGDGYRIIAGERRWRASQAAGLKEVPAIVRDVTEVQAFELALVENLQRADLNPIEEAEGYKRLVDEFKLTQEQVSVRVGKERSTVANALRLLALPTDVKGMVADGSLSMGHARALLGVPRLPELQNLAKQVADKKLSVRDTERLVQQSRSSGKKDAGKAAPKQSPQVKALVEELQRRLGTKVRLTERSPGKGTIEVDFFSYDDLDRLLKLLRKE

ParB-Q52A-R13A = target: T2, ParB-Q52A-R13A (Myxococcus xanthus DK1622, UniProt Q1CVJ4 1-296, Q52A | R13A); experiment: BLI; ParB-Q52A variants loaded on closed parS DNA on the biosensor with CTP; ParA-R238E (5 µM) in solution with ATP and CTP (1 mM each); conditions: both partners purified
T2 construct: ParB of Myxococcus xanthus DK1622, ParB-Q52A variant lacking the conserved residue R13; also called ParB* R13A; R13A variant; source: E. coli Rosetta(DE3)pLysS, purified (as wild-type ParB)
T2 sequence (looked up): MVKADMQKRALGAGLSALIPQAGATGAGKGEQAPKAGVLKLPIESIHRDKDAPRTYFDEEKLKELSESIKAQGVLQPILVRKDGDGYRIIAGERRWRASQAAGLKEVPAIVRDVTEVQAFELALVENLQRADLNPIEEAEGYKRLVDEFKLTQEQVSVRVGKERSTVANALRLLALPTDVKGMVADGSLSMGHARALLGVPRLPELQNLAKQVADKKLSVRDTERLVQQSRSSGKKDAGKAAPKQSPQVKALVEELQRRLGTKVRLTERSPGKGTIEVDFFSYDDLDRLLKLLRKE

ParB-Q52A-R13K = target: T3, ParB-Q52A-R13K (Myxococcus xanthus DK1622, UniProt Q1CVJ4 1-296, Q52A | R13K); experiment: as above; conditions: both partners purified
T3 construct: ParB of Myxococcus xanthus DK1622, ParB-Q52A variant lacking the conserved residue R13; also called ParB* R13K; R13K variant; source: E. coli Rosetta(DE3)pLysS, purified (as wild-type ParB)
T3 sequence (looked up): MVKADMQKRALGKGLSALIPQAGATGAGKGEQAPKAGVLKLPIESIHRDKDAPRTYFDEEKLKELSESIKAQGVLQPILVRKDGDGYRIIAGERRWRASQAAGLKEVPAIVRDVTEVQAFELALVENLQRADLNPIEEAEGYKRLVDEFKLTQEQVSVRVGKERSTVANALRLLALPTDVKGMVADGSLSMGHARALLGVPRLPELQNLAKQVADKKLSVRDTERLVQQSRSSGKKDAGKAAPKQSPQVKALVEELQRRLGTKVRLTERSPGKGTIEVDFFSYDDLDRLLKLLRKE

ParA (wild type) = target: T4, ParA (wild type) (Myxococcus xanthus DK1622, UniProt Q1CVJ3 1-283); experiment: HDX-MS; 50 µM ParA or ParA-D60A with 1 mM ATP, with or without 1 mM ParB_(1-20) and/or 1 mg/mL salmon sperm DNA; 25 °C (Datasets 1 and 2); conditions: both partners purified
T4 construct: ParA of Myxococcus xanthus DK1622, translation product of ORF MXAN_7477; No tag cleavage step is described; also called His6-ParA; wild-type ParA; source: E. coli Rosetta(DE3)pLysS, purified (HisTrap HP, HiTrap Q HP)
T4 sequence (looked up): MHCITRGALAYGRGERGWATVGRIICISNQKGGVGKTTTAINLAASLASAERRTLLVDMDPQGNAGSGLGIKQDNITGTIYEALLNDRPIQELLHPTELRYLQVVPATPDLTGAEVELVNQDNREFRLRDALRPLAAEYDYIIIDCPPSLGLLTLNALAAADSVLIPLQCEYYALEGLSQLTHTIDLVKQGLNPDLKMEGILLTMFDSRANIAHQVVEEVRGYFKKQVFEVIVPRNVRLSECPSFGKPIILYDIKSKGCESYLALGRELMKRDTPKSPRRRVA

His6-ParA_(21-274)-D60A = target: B3; experiment: NMR titration; 2H/13C/15N-labelled ParA_(21-274)-D60A (300 µM) titrated with unlabelled ParB_(1-20) to 1:5.8; TROSY 1H-15N HSQC, 298 K, 50 mM HEPES pH 6.8, 150 mM KCl, 5 mM MgSO4, 1 mM DTT, 1 mM ATP; conditions: both partners purified
[1] = target: the molecule itself; experiment: crystal structure; His6-ParA_(21-274)-D60A (1 mM) with 10 mM ATP and 5 mM ParB_(1-20), sitting drop, 20 °C; crystals held only the ParA dimer with ATP

B1: ParA-R238E (natural protein, Myxococcus xanthus DK1622, UniProt Q1CVJ3 1-283, looked up)
chain: MHCITRGALAYGRGERGWATVGRIICISNQKGGVGKTTTAINLAASLASAERRTLLVDMDPQGNAGSGLGIKQDNITGTIYEALLNDRPIQELLHPTELRYLQVVPATPDLTGAEVELVNQDNREFRLRDALRPLAAEYDYIIIDCPPSLGLLTLNALAAADSVLIPLQCEYYALEGLSQLTHTIDLVKQGLNPDLKMEGILLTMFDSRANIAHQVVEEVRGYFKKQVFEVIVPRNVELSECPSFGKPIILYDIKSKGCESYLALGRELMKRDTPKSPRRRVA
notes: ParA of Myxococcus xanthus DK1622, translation product of ORF MXAN_7477; Purified as His6-ParA; no tag cleavage step is described; also called His6-ParA-R238E; source: E. coli Rosetta(DE3)pLysS, purified (HisTrap HP, HiTrap Q HP)
How did the Kd (ParB (wild type)) turn out when B1 was run?
Its Kd is roughly 1000 nM.

Does B1 bind (ParB-Q52A-R13A)?
Result: binds

Does B1 bind (ParB-Q52A-R13K)?
Result: binds

B2: ParB_(1-20) peptide (peptide, UniProt Q1CVJ4 1-20, looked up)
peptide: MVKADMQKRALGRGLSALIP
notes: also called N-terminal peptide of ParB; source: synthetic peptide
Does B2 bind (ParA (wild type))?
Result: binds

Does B2 bind (His6-ParA_(21-274)-D60A)?
Result: binds

Does B3 bind [1]?
Result: binds
